We go through 6 molecules from paper PMC4609964, “Combination of six enzymes of a marine Novosphingobium converts the stereoisomers of β-O-4 lignin model dimers into the respective monomers” (Scientific Reports, 2015).

The target in series [1] is T1, GST3 (Novosphingobium sp. MBES04, UniProt A0A0S6WZT0).
T1 construct: gene MBENS4_2527; N-terminal His6 tag (pRSET A), E. coli BL21(DE3), His-tag resin purified
T1 sequence (A0A0S6WZT0 1-226): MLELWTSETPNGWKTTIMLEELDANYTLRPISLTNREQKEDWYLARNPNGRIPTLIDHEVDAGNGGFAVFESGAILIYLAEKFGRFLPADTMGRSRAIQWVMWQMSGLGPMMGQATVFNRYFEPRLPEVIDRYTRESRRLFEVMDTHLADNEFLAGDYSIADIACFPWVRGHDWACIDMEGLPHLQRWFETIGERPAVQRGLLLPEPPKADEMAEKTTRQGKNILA
Nature of the series: conventional GST assay (specific activity). The following applies: glutathione co-substrate. It is filed as biochemical.

Another series concerns the target T2, GST6 (Novosphingobium sp. MBES04, UniProt A0A0S6WVQ1).
T2 construct: gene MBENS4_2530; N-terminal His6 tag (pRSET A), E. coli BL21(DE3), His-tag resin purified
T2 sequence (A0A0S6WVQ1 1-283): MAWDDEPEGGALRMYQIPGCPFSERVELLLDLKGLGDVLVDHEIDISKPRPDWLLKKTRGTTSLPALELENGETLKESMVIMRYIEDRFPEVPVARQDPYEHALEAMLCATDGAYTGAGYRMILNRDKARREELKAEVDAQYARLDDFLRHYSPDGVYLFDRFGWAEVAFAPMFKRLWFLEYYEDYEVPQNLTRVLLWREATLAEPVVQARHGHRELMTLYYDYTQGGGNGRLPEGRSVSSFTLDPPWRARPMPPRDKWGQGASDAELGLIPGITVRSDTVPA
The series is described as follows: chiral HPLC of glutathione removal to GHP. The following applies: […] °C, […] h, both conjugates (formed by GST4 and by GST5). It is filed as biochemical.

For series [2], the target named is T1, GST3. Nature of the series: chiral HPLC of glutathione removal to GHP. The following applies: glutathione 2.0 mM; 25 °C, 16 h; both conjugates (formed by GST4 and by GST5). It is filed as biochemical.
The subject of series [3] is COc1ccc(C(=O)C(CO)Oc2ccccc2OC)cc1OC. The series is described as follows: purified protein. The following applies: GSH co-substrate, optimal pH 7−8, 40 °C (determined with MPHPV).
Series [4] concerns COc1cc(C(=O)C(CO)Oc2ccccc2OC)ccc1O. The series is described as follows: purified protein. The following applies: GSH co-substrate, optimal pH 7−8, 40 °C, 1:1 β(R)/β(S) mixture (acts on β(R)).
Series [5] relates to COc1ccc(C(O)C(CO)Oc2ccccc2OC)cc1OC. Nature of the series: purified protein. The following applies: NAD cofactor.
Substrate in series [6]: COc1cc(C(=O)C(CO)Oc2ccccc2OC)ccc1O
Nature of the series: purified protein. The following applies: GSH co-substrate, optimal pH 9, 35 °C, 1:1 β(R)/β(S) mixture (acts on β(S)). It is filed as biochemical, Novosphingobium sp. MBES04.

Substrate in series [7]: COc1ccc(C(=O)C(CO)Oc2ccccc2OC)cc1OC
The series is described as follows: purified protein. It is filed as biochemical, Novosphingobium sp. MBES04. The following applies: GSH co-substrate, optimal pH 9, 35 °C (determined with MPHPV).

The mark [8] stands for this setting: optimal conditions (pH 9, 15 °C).
Setting [9] is: optimal conditions (pH 9–10, 30 °C).

For orientation: Km means the substrate concentration at which the rate is half of its maximum. Broadly, the kcat is the maximal rate divided by the concentration of active sites. As usually defined, the kcat/Km is the turnover number divided by the Michaelis constant.

With `O=[N+]([O-])c1ccc(Cl)c([N+](=O)[O-])c1` [CDNB], the “conventional GST assay (specific activity)” value at GST3 [1] was “the activity of GST3 towards 1-chloro-2,4-dinitrobenzene (CDNB)”.

In the case of `COc1cc(C(=O)C(CO)SC[C@H](NC(=O)CC[C@H](N)C(=O)O)C(=O)NCC(=O)O)ccc1O` (stereo partly drawn) [GS-GHP], the “chiral HPLC of glutathione removal to GHP” value on GST6 is “the removal of glutathione from both glutathione conjugates of GHP produced by GST4 and GST5”; on GST3 [2] it was “the removal of glutathione from both glutathione conjugates of GHP produced by GST4 and GST5”.

For GST5 (Novosphingobium sp. MBES04), in series [3], the Km was determined as 780 µM, the kcat worked out at 0.158 s⁻¹ and the kcat/Km is 200 M⁻¹ s⁻¹. Moreover, in series [4], the Km came out at 290 µM, the kcat is 0.0583 s⁻¹ and the kcat/Km was determined as 200 M⁻¹ s⁻¹.

On to SDR3 (Novosphingobium sp. MBES04), for which, in series [5] (setting [8]), the Km is 1500 µM, the kcat worked out at 0.065 s⁻¹ and the kcat/Km worked out at 41.7 M⁻¹ s⁻¹.

For SDR5 (Novosphingobium sp. MBES04), in series [5] (setting [9]), the Michaelis-Menten constant (Km) came out at 1100 µM, the kcat worked out at 23.3 s⁻¹ and the kcat/Km worked out at 21700 M⁻¹ s⁻¹.

B1: GST4 (Novosphingobium sp. MBES04) (protein)
chain: MLTLYSFGPGANSLKPLLALYEKGLEFTPRFVDPTKFEHHEEWFKKINPRGQVPALDHDGNVITESTVICEYLEDAFPDAPRLRPTDPVQIAEMRVWTKWVDEYFCWCVSTIGWERGIGPMARALSDEEFEEKVKRIPIPEQQAKWRSARAGFPKEVLDEEMRKIRVSIDRLEKRLSESTWLAGEDYTLADICNFAIANGMEKGFDDIVNTAATPNLVAWIERINARPACIEMFAKSKSEFAARKPFAKSEEQAQA
notes: N-terminal His6 tag (pRSET A), E. coli BL21(DE3), His-tag resin purified
Consider B1, for which, in “purified protein [6]”, the Km was determined as 470 µM, the kcat came to 0.75 s⁻¹ and the kcat/Km worked out at 1580 M⁻¹ s⁻¹. Further, in “purified protein [7]”, the Km worked out at 550 µM, the turnover number (kcat) was 0.3 s⁻¹ and the kcat/Km stood at 533 M⁻¹ s⁻¹.
